According to US20180362660A1 (published 2018):

Experiments:
[1] = target: T1, human penumbra protein (hpen) (human, UniProt Q86UF1 1-283); assay: flow cytometry on human blood mononuclear cells, FITC-conjugated mAb
T1 construct: whole, on cells; Untagged; also called BaF3/hpen; tetraspanin 33
T1 sequence (looked up): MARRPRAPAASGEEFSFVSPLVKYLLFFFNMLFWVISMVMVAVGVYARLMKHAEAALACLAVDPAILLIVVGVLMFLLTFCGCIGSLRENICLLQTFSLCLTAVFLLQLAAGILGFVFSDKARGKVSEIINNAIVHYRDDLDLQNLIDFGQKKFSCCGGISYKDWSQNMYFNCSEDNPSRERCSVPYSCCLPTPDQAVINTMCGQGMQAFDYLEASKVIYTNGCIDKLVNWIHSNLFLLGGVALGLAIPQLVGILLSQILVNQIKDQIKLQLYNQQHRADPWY

[2] = target: T2, mouse penumbra protein (mpen), native, on primary mouse B lymphocytes (mouse, UniProt Q8R3S2 1-283); assay: flow cytometry on Balb/C mouse bone marrow cells, FITC-conjugated mAb
T2 construct: whole, on cells; This form has no tag, unlike m5; also called cell surface pen
T2 sequence (looked up): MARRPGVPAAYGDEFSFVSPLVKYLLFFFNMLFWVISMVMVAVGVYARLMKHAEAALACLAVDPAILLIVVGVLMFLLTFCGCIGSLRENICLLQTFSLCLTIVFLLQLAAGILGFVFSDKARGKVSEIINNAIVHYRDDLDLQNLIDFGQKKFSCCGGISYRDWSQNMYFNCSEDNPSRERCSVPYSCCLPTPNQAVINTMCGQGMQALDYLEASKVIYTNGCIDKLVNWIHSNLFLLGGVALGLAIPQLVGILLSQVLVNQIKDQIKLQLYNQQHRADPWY
Method: Flow cytometry data were analyzed using FloJo v.10 software. The number in each quadrant denotes %. FIG. 5A: A dot plot of isotype-PE vs. isotype-FITC. FIG. 5B: A dot plot of isotype-PE vs. A296.2-FITC. FIG. 5C: Anti-CD19-PE vs. isotype-FITC. […] FIG. 5E: Anti-B220-PE vs. isotype-FITC. […] FIG. 5G: Anti-CD20-PE vs. isotype-FITC. […] FIG. 5I: Anti-CD138-PE vs. isotype-FITC. […] FIG. 5K: Anti-CD117-PE vs. isotype-FITC. […] FIG. 5M: TER119-PE vs. isotype-FITC. […] FIG. 5O: Anti-Mac-1-PE vs. isotype-FITC. […] Data shown were lymphocyte-gated.
(§1) The medium used for cell staining was Hank's Balanced Salt Solution (HBSS) supplemented with heat-inactivated FBS (5% vol/vol) and sodium azide (0.09% wt/vol). This solution is known as “H5FAH”. All staining and washing were performed at 4° C. The flow cytometer used was a DxP flow cytometer with CYTOTEK™ upgrade (Cytotek). Analysis of flow cytometry data was performed using FLOWJO™ v. 9 (FIG. 3 only) or v.10 (Beckton-Dickinson)(BD). Fluorescence microscopy was performed using a microscope equipped with a digital camera.

[3] = target: T3, mouse penumbra protein (mpen) fused to a C-terminal Myc-Hisx6 tag, on BaF3/mpen cells (mouse, UniProt Q8R3S2 1-283); assay: flow cytometry, hybridoma supernatant on live BaF3/mpen, GAMIgs-FITC detection
T3 construct: whole, on cells; Stably expressed in the pen-negative mouse pre-B cell line BaF3; also called cell-surface pen; tetraspanin 33; not shown: Myc-Hisx6 tag from vector pcDNA3.1 at the intracellular C-terminus
T3 sequence (looked up): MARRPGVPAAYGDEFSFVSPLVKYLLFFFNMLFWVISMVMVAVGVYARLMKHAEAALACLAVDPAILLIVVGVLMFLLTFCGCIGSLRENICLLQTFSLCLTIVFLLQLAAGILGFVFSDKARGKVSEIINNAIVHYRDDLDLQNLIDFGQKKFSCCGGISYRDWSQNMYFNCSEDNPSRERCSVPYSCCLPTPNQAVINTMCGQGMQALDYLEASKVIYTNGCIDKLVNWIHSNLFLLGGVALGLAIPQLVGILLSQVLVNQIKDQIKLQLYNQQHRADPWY
Method: as §1

[4] = target: T1, human penumbra protein (hpen); assay: immunofluorescence microscopy on live BaF3/hpen
[5] = target: T3, mouse penumbra protein (mpen) fused to …; assay: indirect immunofluorescence microscopy on live BaF3/mpen
[6] = target: T3, mouse penumbra protein (mpen) fused to …; assay: immunofluorescence microscopy on live BaF3/mpen

Measured: binding result

B1: mAb 29A6.2 (antibody, V domains shown)
VH: QVQLKQSGPGLVQPSQSLSITCTVSGFSLTSYGVHWVRQSPGKGLEWLGVIWSGGSTDYNAAFISRLSISKDNSKSQVFFKMNSLQADDTAIYYCATFDYWGQGTTLTVSS
VL: DIVITQDELSNPVTSGESVSISCRSSKSLLYKDGKTYLNWFLQRPGQSPQLLIYLMSTRASGVSDRFSGSGSGTDFTLEISRVKAEDVGVYYCQQLVEYPFTFGSGTKLEIKR
notes: Tested as hybridoma supernatant or as purified, FITC-conjugated antibody; also called 29A6.2-FITC; hybridoma 29A6.2
binds: [1] | [2] | [3]

B2: mAb 41B10.13 (antibody, V domains shown)
VH: QVQLKESGPGLVAPSQSLSITCTVSGFSLTSYAISWVRQPPGKGLEWLGVIWTGGGTNYNSALKSRLSISKDNSKSQVFLKMNSLQTDDTARYYCAREGNAYYSNYESTAYWGQGTLVTVSA
VL: DIVITQDELSNPVTSGESVSISCRSSKSLLYKDGKTYLNWFLQRPGQSPQLLIYLMSTRASGVSDRFSGSGSGTDFTLEISRVKAEDVGVYYCQQLVEYPFTFGSGTKLEIKR
notes: The first 19 amino acids of each entry are signal peptides and are left out; Tested as hybridoma supernatant or as purified, FITC-conjugated antibody; also called 41B10.13-FITC; 41B10-FITC
binds: [4] | [5] | [2]

B3: mAb 59E6.8 (antibody, V domains shown)
VH: QVQLQQPGAELVKPGASVKMSCKASGYTFTSYWITWVKQRPGQGLEWIGDIYPGSGSTNYNEKFKSKATLTVDTSSSTAYMQLSSLTSEDSAVYYCARDYYGSSYDYWGQGTTLTVSS
VL: DIVITQDELSNPVTSGESVSISCRSSKSLLYKDGKTYLNWFLQRPGQSPQLLIYLMSTRASGVSDRFSGSGSGTDFTLEISRVKAEDVGVYYCQQLVEYPFTFGSGTKLEIKR
notes: The first 19 amino acids of each entry are signal peptides and are left out; Tested as hybridoma supernatant or as purified, FITC-conjugated antibody; also called 59E6.8-FITC; anti-pen mAb
binds: [4] | [6] | [2]
